# Data: the nanobody polyreactivity screen of Harvey et al. (2022)
# Assay: yeast display, Sf9 membrane polyspecificity reagent, FACS + sequencing; frameworks hold sequencing errors
# Summary of the method: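 Galactose-induced (36–48 hours) yeast carrying a synthetic nanobody display library were exposed to 10% biotinylated, detergent-solubilized Sf9 membrane reagent at 4 °C for 1 hour. FACS followed streptavidin microbead enrichment, using low and high (top ~1%) gates for expression (anti-HA) and reagent binding (streptavidin). Colony PCR, MiSeq 2 × 250 sequencing and CDR-length filtering followed. Labels for polyreactivity reflect the gate of origin.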
row,Sequence,polyreactivity (PSR sort gate)
1,QVQLVESGGGLVQARGSLRLSCAASGRILKRYAMGWYRQAPGKERELVAAISYGGGSTDYADSVKGRFTISRDNAKNTVYLQMNSLKPEDTAVYYCAAKVRYYLSLRGSTTRRDDYYWGQGTQVTVSS,low polyreactivity
2,QVQLVESGGGLVQARGSLRLSCAASGSIFGSYAMGWYRQAPGKDSELVADISCGGSTNYADSVKGRFTISRDNAKNTVYLQMNSLKPDDTAVYYCNADDPAGYLYLWGSWLESDYWGQGTQVTVSS,low polyreactivity
3,QVQLVESGGGLVQARGSLRLSCAASGSTFAYNAMGWYRKAPGKERELVADITSTGTSTYADSVKGRFTISRDNAKNTVYLQMNSLKPEDTAVYYCNADYDSTYVGYDYWGQGTQVTVSS,low polyreactivity
4,QVQLVESGGGLVQARGSLRLSCAASGSTFDSNAMGCYRQAPGKERELVAAITRGGSTNYADSVKGRFTISRDNAKNTVYLQMNSLNPEDTAVYYCAAASETLGSATYGSGYDYWGQGTQVTVSS,low polyreactivity
5,QVQLVESGGGLVQARGSLRLSCAASGSTFGRYAMGSYRQAPGIERELVAAISLGTTTNYADSVKGRFTISRDNAKNTVYLQMNSLKPEDTAVSYCAADQPSKRYYYWGQGTQVTVSS,low polyreactivity
6,QVQLVESGGGLVQARGSLRLSCAASGSTFIPNTMGWSRQAPGKERELVAAISRRGGSKNYADSVKGRFTISRDNAKNTVYLQMNSLNPEDTAVYYCAAASPRRYRYDYWGQGTQVTVSS,high polyreactivity
7,QVQLVESGGGLVQARGSLRLSCAASGSTFSVYAMGWYRQAPGKERELVAAITDVDNTYYADSVKGRFTISRDNAKNTVYLQRNSLKPEDTAVYYCDARYYQYYEYYHWGQGTQVTVSS,low polyreactivity
8,QVQLVESGGGLVQARGSLRLSCAASGSTFYPYAMGWYRQAPGKERELVAAISSGGSTSYADSVKGRFTISRDNAKNTVYLQMNSLKPEDTAVYYCNASSPGAVPVYDYDYWGQGTQVTVSS,low polyreactivity
9,QVQLVESGGGLVQARGSLRLSCAAYRITFGWYAMGWYRQAHAKERELVASISSSGSTNYADSVKGRFTISRDNAKNTVYLQMNSLKPEDTAVYYCNKDYRRRHYYIYVIEGDYWGQGTQVTVSS,low polyreactivity
10,QVQLVESGGGLVQARGSLRLSCPASGITFARYAMEWSRQAPGKERELVAAISYGGGSTYYADSVKGRFTISRDNAKNTVYLQMNSLKPEDTSVYYCNNVPRKSYGYWGQGTQVTVSS,high polyreactivity
11,QVQLVESGGGLVQARGSLRLSCPASGSIFSLNAMGWYRQAPGKERELVASISRGGSTNYADSVKGRFTISRDNAKNTVYLQMNSLKPEDTAVYYCAAYWYYYTKSQSSYRFDYWGQGTQVTVSS,low polyreactivity
12,QVQLVESGGGLVQARGSLRLSSAASGYIFYHYAMGWYRQSPGKERELVAAISSGGGSTYYADSVKGRFTISRDYAKNTVSLQINSLKPEDTAVYYCNAVRYYTKYDYWGQGTQVTVSS,high polyreactivity
13,QVQLVESGGGLVQARGSLRLTCAASGSTFSENAMGWYRQAPGKERELVAAISRGGGRTYYADSVKGRFTISRDNAKNTVYLQMNSLKPEDTAVYYCNAGLPAGNHGYDYWGQGTQVTVSS,high polyreactivity
14,QVQLVESGGGLVQARVSLRLICAASAIIIYDNAIGWYRQAPGKESEFVATINYSGDSTYYADSVKGRFTISRDNANNTVYLQMNSLKPEDTAVYYCATDGAWQYYWVYSHVYWGQGTQVTVSS,low polyreactivity
15,QVQLVESGGGLVQAVGSHRLSCAASGFIFTSYAMGWYRQAPGKERELVAAITRSGGRTYYADSVKGRFTISRDNAKNTVYLQMNSLKPEDTAVYYCAAVTFYQSPARGYWGQGTQVTVSS,high polyreactivity
16,QVQLVESGGGLVQAVGSLRLSCAASGFIFVGYAMGWYRQAPGKERELVAAITGGGTTYYADSVKGRFTISRDNAKNSVYLQMNSLKPEETAVYYCAKDRPRKDTQRWRYGHWGQGTQVTVSS,high polyreactivity

row,Sequence,polyreactivity (PSR sort gate)
1,QVQLVESGGGLVQAVGSLRLSCAASGFILGGYALGWYRQAPGKERELVAAISFSTVATYYADSVKGRFTNSRDNAKNTVYLQMNSLKPEDTAVYYCAARRLGYYRKVKELDYWGQGTQVTVST,high polyreactivity
2,QVQLVESGGGLVQAVGSLRLSCAASGHIFCYYTMGRYRQAPGKERELVAGITIGGSTNYADSVKGRFTISRDNAKNTVYLQMNSLKPEDTAVYYCNVVKYVYIYSYWEYYYWGQGTQVTVSS,low polyreactivity
3,QVQLVESGGGLVQAVGSLRLSCAASGIIFDSYAMGWYRQAPGKERELVAAITSRGGRTYYADSVKGRFTISRDNAKNTVYLQMNSLKPEDTAVYYCAADDGWIEPVYGYYEHEYWGQGTQVTVSS,low polyreactivity
4,QVQLVESGGGLVQAVGSLRLSCAASGRIFDTYVMGWYRQAPGKEREMVAAISGSGGSTYYADSVKGRFTISRDNAKNTVYLQMNSLKPEDTAVYYCSAARRYYAYRYDYWGQGTQVTVSS,high polyreactivity
5,QVQLVESGGGLVQAVGSLRLSCAASGRIFYSYAMGWYRQAPGKERELVAAITRGGSTSYADSVKGRFTISRDNAKNTVYLQMNSLKPDDTAVYYCATRQFYSYWKYYYWGQGTQVTVSS,high polyreactivity
6,QVQLVESGGGLVQAVGSLRLSCAASGRTFSEYAMGWYRQAPGKERELVAAITGTGGSTYYADSVKGRFTISRDNAKNTVYLQMNSLKPEDTAVYFCAAEYYRYYFLSVSTDDYWGQGTQVTVSS,high polyreactivity
7,QVQLVESGGGLVQAVGSLRLSCAASGSIFRRNVMGWYRPAPGKERELVATLTVGGSTYYADSVKGRFTISRDNAKNTVYLQMNSLIPEDTAVYYCAAYSPYLRSWYDYWGQGTQGTVSS,high polyreactivity
8,QVQLVESGGGLVQAVGSLRLSCAASGSTFKAYAMGWYRQAPGKERELVAAITKSGGRTYYADSVKGRFTISRDNAKNTVYLQMNSLKPEDTAVYYCAAVFRPDSSAYRYYYLGQGTQVTVSS,high polyreactivity
9,QVQLVESGGGLVQAVGSLRLSCAASGSTFNRYALGWYRQAPGKERQLVAAITVRGNTYYADSVKGRFTISRDNAKNTVYLQMNSLKPEDTAVYYCAARIYYLYKDRRLGYYWGQGTQVTVSS,high polyreactivity
10,QVQLVESGGGLVQAVGSLRLSCAASGSTLVYYAMGWYRQAPGKERELVATITRSGGNTYYADSVKGRFTISRDNAKNTVYLQMNSLNPEDTAVYYWAARRLYGSQRGYWGQGTQVTVSS,high polyreactivity
11,QVQLVESGGGLVQAVGSLRLSCAASGTISVANAMGWYRQAPGKERELVAVINTSGTRTYYADSVKGRFTISRDNAKNTVYLQMNSLKPEDTAVYYCAARLRGVQGYEYWGQGTQVTVSS,low polyreactivity
12,QVQLVESGGGLVQAVGSLRLSCAASVSTFRHYAMGWYRQAPGKERELVAAISSTGGSTYYADSVKGRFTISRDNAKNTVYLQMNSLKPEDTAVYYCAARRLYWGQGTQVTVSS,high polyreactivity
13,QVQLVESGGGLVQAVGSLRLSCAPSGRTLNNYTMGWNRPAPGKERELVAAIRWSTGSTYYADSVKGRFTISRDNSKNTVYLQMNSLKPEDTAVYYCNAYRYQWAQSTEYDYWGQGTQVTVSS,high polyreactivity
14,QVQLVESGGGLVQAVGSLRLSCAPSGSLFPGYAMGWYRQAPGKERELVAAITFSGGSTYYADSVKGRFTISRDYAKQSVYLPMNSLKPEDTAVYYCAAPGWYGGYPSYYYWGQGTQVTVSS,low polyreactivity
15,QVQLVESGGGLVQAVGSLRLSCAPSGTTFTHYAMGWYRKAPGKERELVAAISWSGGSTYYADSVKGRFTISRDNAKNTVYLQMNSLKQEDCAVYYCKTYGVSYYGSGYYWGQGTQVTVSS,high polyreactivity
